Measurements: the supplement of paper PMC5998384

How the values were obtained:
HeLa Kyoto [1] = test: solubility in G1/S (NP-40 vs SDS abundance) (log2 ratio); higher = more soluble; conditions: cell cycle stage: G1/S
HeLa Kyoto [2] = test: melting temperature (median over replicates), in situ; higher = more thermally stable
HeLa Kyoto [3] = test: solubility change mitosis vs G1/S (difference of NP-40 vs SDS log2 ratios) (log2 ratio difference); higher = more soluble in mitosis
HeLa Kyoto [4] = test: thermal stability score vs G1/S (z-score of summed log2 fold changes over temperatures); higher = more thermally stable than in G1/S
[5] = cell cycle stage: early G1 (4.5 h after nocodazole release)
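For melting temperature (median over replicates), in situ in this document: HeLa Kyoto cells synchronized by double thymidine or nocodazole block, proteins quantified by TMT10plex mass spectrometry, three independent biological replicates.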
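For solubility change mitosis vs G1/S (difference of NP-40 vs SDS log2 ratios) in this document: synchronized HeLa Kyoto cells (double thymidine block for G1/S, nocodazole release for mitosis), protein amounts in NP-40 versus SDS lysates quantified by mass spectrometry, three biological replicates.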
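For solubility in G1/S (NP-40 vs SDS abundance) in this document: HeLa Kyoto cells arrested at G1/S by double thymidine block, proteins quantified by TMT10plex mass spectrometry in mild NP-40 versus SDS extracts, three biological replicates.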
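For thermal stability score vs G1/S (z-score of summed log2 fold changes over temperatures) in this document: synchronized HeLa Kyoto cells, proteins quantified by TMT10plex mass spectrometry, three biological replicates, mitosis taken 0.5 h after nocodazole release, G1/S directly after double thymidine block.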

Row | Sequence | solubility in G1/S (log2) (HeLa Kyoto [1]) | melting temperature (HeLa Kyoto [2]; cell cycle stage: G1/S) | melting temperature (HeLa Kyoto [2]; cell cycle stage: mitosis) | solubility change mitosis (log2) (HeLa Kyoto [3]) | thermal stability score (HeLa Kyoto [4]; [5]) | thermal stability score (HeLa Kyoto [4]; cell cycle stage: mitosis)
1 | MLPLLRCVPRVLGSSVAGLRAAAPASPFRQLLQPAPRLCTRPFGLLSVRAGSERRPGLLRPRGPCACGCGCGSLHTDGDKAFVDFLSDEIKEERKIQKHKTLPKMSGGWELELNGTEAKLVRKVAGEKITVTFNINNSIPPTFDGEEEPSQGQKVEEQEPELTSTPNFVVEVIKNDDGKKALVLDCHYPEDEVGQEDEAESDIFSIREVSFQSTGESEWKDTNYTLNTDSLDWALYDHLMDFLADRGVDNTFADELVELSTALEHQEYITFLEDLKSFVKSQ [C1QBP] | 0.515 | 52.6 °C | 52 °C | 0.179 | -1.11 | -3.14
2 | MLPLSLLKTAQNHPMLVELKNGETYNGHLVSCDNWMNINLREVICTSRDGDKFWRMPECYIRGSTIKYLRIPDEIIDMVKEEVVAKGRGRGGLQQQKQQKGRGMGGAGRGVFGGRGRGGIPGTGRGQPEKKPGRQAGKQ [LSM4] | 0.0844 | 58.1 °C | 54.6 °C | 0.187 | -3.84 | -4.06
3 | MLQTLYDYFWWERLWLPVNLTWADLEDRDGRVYAKASDLYITLPLALLFLIVRYFFELYVATPLAALLNIKEKTRLRAPPNATLEHFYLTSGKQPKQVEVELLSRQSGLSGRQVERWFRRRRNQDRPSLLKKFREASWRFTFYLIAFIAGMAVIVDKPWFYDMKKVWEGYPIQSTIPSQYWYYMIELSFYWSLLFSIASDVKRKDFKEQIIHHVATIILISFSWFANYIRAGTLIMALHDSSDYLLESAKMFNYAGWKNTCNNIFIVFAIVFIITRLVILPFWILHCTLVYPLELYPAFFGYYFFNSMMGVLQLLHIFWAYLILRMAHKFITGKLVEDERSDREETESSEGEEAAAGGGAKSRPLANGHPILNNNHRKND [CERS2] | 0.0784 | 52.7 °C | 52.9 °C | -0.158 | -0.502 | -0.489
4 | MLRAPGCLLRTSVAPAAALAAALLSSLARCSLLEPRDPVASSLSPYFGTKTRYEDVNPVLLSGPEAPWRDPELLEGTCTPVQLVALIRHGTRYPTVKQIRKLRQLHGLLQARGSRDGGASSTGSRDLGAALADWPLWYADWMDGQLVEKGRQDMRQLALRLASLFPALFSRENYGRLRLITSSKHRCMDSSAAFLQGLWQHYHPGLPPPDVADMEFGPPTVNDKLMRFFDHCEKFLTEVEKNATALYHVEAFKTGPEMQNILKKVAATLQVPVNDLNADLIQVAFFTCSFDLAIKGVKSPWCDVFDIDDAKVLEYLNDLKQYWKRGYGYTINSRSSCTLFQDIFQHLDKAVEQKQRSQPISSPVILQFGHAETLLPLLSLMGYFKDKEPLTAYNYKKQMHRKFRSGLIVPYASNLIFVLYHCENAKTPKEQFRVQMLLNEKVLPLAYSQETVSFYEDLKNHYKDILQSCQTSEECELARANSTSDEL [MINPP1] | 0.459 | 54.4 °C | 55.7 °C | -0.069 | 4.83 | 4.74
5 | MLRFLAPRLLSLQGRTARYSSAAALPSPILNPDIPYNQLFINNEWQDAVSKKTFPTVNPTTGEVIGHVAEGDRADVDRAVKAAREAFRLGSPWRRMDASERGRLLNRLADLVERDRVYLASLETLDNGKPFQESYALDLDEVIKVYRYFAGWADKWHGKTIPMDGQHFCFTRHEPVGVCGQIIPWNFPLVMQGWKLAPALATGNTVVMKVAEQTPLSALYLASLIKEAGFPPGVVNIITGYGPTAGAAIAQHVDVDKVAFTGSTEVGHLIQKAAGDSNLKRVTLELGGKSPSIVLADADMEHAVEQCHEALFFNMGQCCCAGSRTFVEESIYNEFLERTVEKAKQRKVGNPFELDTQQGPQVDKEQFERVLGYIQLGQKEGAKLLCGGERFGERGFFIKPTVFGGVQDDMRIAKEEIFGPVQPLFKFKKIEEVVERANNTRYGLAAAVFTRDLDKAMYFTQALQAGTVWVNTYNIVTCHTPFGGFKESGNGRELGEDGLKAYTEVKTVTIKVPQKNS [ALDH1B1] | 0.229 | 52.6 °C | 52.8 °C | -0.0523 | -1.97 | -1.54
6 | MLRLPTVFRQMRPVSRVLAPHLTRAYAKDVKFGADARALMLQGVDLLADAVAVTMGPKGRTVIIEQSWGSPKVTKDGVTVAKSIDLKDKYKNIGAKLVQDVANNTNEEAGDGTTTATVLARSIAKEGFEKISKGANPVEIRRGVMLAVDAVIAELKKQSKPVTTPEEIAQVATISANGDKEIGNIISDAMKKVGRKGVITVKDGKTLNDELEIIEGMKFDRGYISPYFINTSKGQKCEFQDAYVLLSEKKISSIQSIVPALEIANAHRKPLVIIAEDVDGEALSTLVLNRLKVGLQVVAVKAPGFGDNRKNQLKDMAIATGGAVFGEEGLTLNLEDVQPHDLGKVGEVIVTKDDAMLLKGKGDKAQIEKRIQEIIEQLDVTTSEYEKEKLNERLAKLSDGVAVLKVGGTSDVEVNEKKDRVTDALNATRAAVEEGIVLGGGCALLRCIPALDSLTPANEDQKIGIEIIKRTLKIPAMTIAKNAGVEGSLIVEKIMQSSSEVGYDAMAGDFVNMVEKGIIDPTKVVRTALLDAAGVASLLTTAEVVVTEIPKEEKDPGMGAMGGMGGGMGGGMF [HSPD1] | 0.316 | 55.2 °C | 55 °C | 0.129 | 1.84 | -0.583
7 | MLRLVPTGARAIVDMSYARHFLDFQGSAIPQAMQKLVVTRLSPNFREAVTLSRDCPVPLPGDGDLLVRNRFVGVNASDINYSAGRYDPSVKPPFDIGFEGIGEVVALGLSASARYTVGQAVAYMAPGSFAEYTVVPASIATPVPSVKPEYLTLLVSGTTAYISLKELGGLSEGKKVLVTAAAGGTGQFAMQLSKKAKCHVIGTCSSDEKSAFLKSLGCDRPINYKTEPVGTVLKQEYPEGVDVVYESVGGAMFDLAVDALATKGRLIVIGFISGYQTPTGLSPVKAGTLPAKLLKKSASVQGFFLNHYLSKYQAAMSHLLEMCVSGDLVCEVDLGDLSPEGRFTGLESIFRAVNYMYMGKNTGKIVVELPHSVNSKL [ZADH2] | 0.198 | 52.9 °C | 53.5 °C | -0.199 | 0.549 | 1.57
8 | MLRSCAARLRTLGALCLPPVGRRLPGSEPRPELRSFSSEEVILKDCSVPNPSWNKDLRLLFDQFMKKCEDGSWKRLPSYKRTPTEWIQDFKTHFLDPKLMKEEQMSQAQLFTRSFDDGLGFEYVMFYNDIEKRMVCLFQGGPYLEGPPGFIHGGAIATMIDATVGMCAMMAGGIVMTANLNINYKRPIPLCSVVMINSQLDKVEGRKFFVSCNVQSVDEKTLYSEATSLFIKLNPAKSLT [THEM4] | 0.0285 | 54.7 °C | 56.2 °C | -0.0775 | 0.216 | -1.16
9 | MLRTSVLRLLGRTGASRLSLLEDFGPRYYSSGSLSAGDDACDVRAYFTTPIFYVNAAPHIGHLYSALLADALCRHRRLRGPSTAATRFSTGTDEHGLKIQQAAATAGLAPTELCDRVSEQFQQLFQEAGISCTDFIRTTEARHRVAVQHFWGVLKSRGLLYKGVYEGWYCASDECFLPEAKVTQQPGPSGDSFPVSLESGHPVSWTKEENYIFRLSQFRKPLQRWLRGNPQAITPEPFHHVVLQWLDEELPDLSVSRRSSHLHWGIPVPGDDSQTIYVWLDALVNYLTVIGYPNAEFKSWWPATSHIIGKDILKFHAIYWPAFLLGAGMSPPQRICVHSHWTVCGQKMSKSLGNVVDPRTCLNRYTVDGFRYFLLRQGVPNWDCDYYDEKVVKLLNSELADALGGLLNRCTAKRINPSETYPAFCTTCFPSEPGLVGPSVRAQAEDYALVSAVATLPKQVADHYDNFRIYKALEAVSSCVRQTNGFVQRHAPWKLNWESPVDAPWLGTVLHVALECLRVFGTLLQPVTPSLADKLLSRLGVSASERSLGELYFLPRFYGHPCPFEGRRLGPETGLLFPRLDQSRTWLVKAHRT [MARS2] | 0.0996 | 55.2 °C | 55.5 °C | -0.083 | -3.14 | -3.9
10 | MLRTTRGPGLGPPLLQAALGLGRAGWHWPAGRAASGGRGRAWLQPTGRETGVQVYNSLTGRKEPLIVAHAEAASWYSCGPTVYDHAHLGHACSYVRFDIIRRILTKVFGCSIVMVMGITDVDDKIIKRANEMNISPASLASLYEEDFKQDMAALKVLPPTVYLRVTENIPQIISFIEGIIARGNAYSTAKGNVYFDLKSRGDKYGKLVGVVPGPVGEPADSDKRHASDFALWKAAKPQEVFWASPWGPGRPGWHIECSAIASMVFGSQLDIHSGGIDLAFPHHENEIAQCEVFHQCEQWGNYFLHSGHLHAKGKEEKMSKSLKNYITIKDFLKTFSPDVFRFFCLRSSYRSAIDYSDSAMLQAQQLLLGLGSFLEDARAYMKGQLACGSVREAMLWERLSSTKRAVKAALADDFDTPRVVDAILGLAHHGNGQLRASLKEPEGPRSPAVFGAIISYFEQFFETVGISLANQQYVSGDGSEATLHGVVDELVRFRQKVRQFALAMPEATGDARRQQLLERQPLLEACDTLRRGLTAHGINIKDRSSTTSTWELLDQRTKDQKSAG [CARS2] | 0.0252 | 55.4 °C | 54.1 °C | -0.0653 | 0.291 | -0.0596
